Reference: patent US20110189205A1 (UNIVERSITY OF ROCHESTER, published 2011)
No end group written: not given here. Alexa488 = Alexa488 dye (single fluorescent dye molecule)

Target: T1, CGRP receptor on rat CNS1 glioma cells (rat, UniProt Q63118 24-464; Q9JJ74 27-148)
T1 construct: whole, on cells; Endogenous receptor; also called CGRP receptors of CNS1 glioma cells
Assay: fluorescence microscopy, 30 nM FL-CGRP on CNS1 cells
Protocol: FIG. 13 is a panel of microscopy images illustrating that FL-CGRP binds to CNS1 glioma cells. CNS1 cells were incubated with 30 nM FL-CGRP for 30 minutes, and imaged using phase-contrast microscopy (right, upper and lower panels) and fluorescent microscopy for FL-CGRP (left, upper and lower panels).

T1 sequence (Q63118 24-464, chain 1 of 2): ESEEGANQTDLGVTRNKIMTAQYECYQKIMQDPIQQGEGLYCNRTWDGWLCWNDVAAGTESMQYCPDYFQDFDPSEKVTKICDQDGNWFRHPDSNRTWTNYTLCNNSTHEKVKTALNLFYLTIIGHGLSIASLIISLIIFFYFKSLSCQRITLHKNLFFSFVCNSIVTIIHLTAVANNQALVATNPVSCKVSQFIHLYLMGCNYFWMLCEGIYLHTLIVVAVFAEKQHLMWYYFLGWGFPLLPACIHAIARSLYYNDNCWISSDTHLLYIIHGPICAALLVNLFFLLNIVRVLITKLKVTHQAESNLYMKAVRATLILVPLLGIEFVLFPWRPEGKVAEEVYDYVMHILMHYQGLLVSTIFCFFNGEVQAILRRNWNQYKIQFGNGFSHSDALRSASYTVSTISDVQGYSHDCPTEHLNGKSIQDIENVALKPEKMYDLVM
T1 sequence (Q9JJ74 27-148, chain 2 of 2): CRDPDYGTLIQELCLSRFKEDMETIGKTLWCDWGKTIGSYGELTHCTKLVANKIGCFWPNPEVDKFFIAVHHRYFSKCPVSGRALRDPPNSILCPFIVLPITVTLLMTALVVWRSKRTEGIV

B1: fluorescently-labeled CGRP (FL-CGRP): rat CGRP with a single Alexa488 dye on lysine 24 (peptide, UniProt P01256 83-119, looked up)
peptide: SCNTATCVTHRLAGLLSRSGGVVK(Alexa488)DNFVPTNVGSEAF
modifications: ends and bridges not checked
notes: mature; the peptide itself is the mature 37-mer; also called single-labeled FL-CGRP
- binding result: binds
